Tests used:
[1] = target: anti-DSG2 antibody; assay: anti-DSG2 antibody MSD assay; inhibition by the fusion polypeptide (fraction C per table title); antibody at 1000 ng/mL
[2] = target: anti-DSG2 antibody; assay: anti-DSG2 antibody MSD assay; inhibition by the fusion polypeptide (fraction C per table title); antibody at 200 ng/mL
[3] = target: anti-DSG2 antibody; assay: electrochemical immunoassay; fusion polypeptide at 5 mg/mL (so in the source), antibody at 500 ng/mL
[4] = test system: anti-DSG2 antibody; assay: anti-DSG2 antibody meso scale discovery (MSD) assay, blocking of anti-DSG2 antibody; type: binding; settings: for % inhibition: fraction C (table title)
Protocol: (§1) The DSG2 fusion polypeptides were tested for the ability to block anti-DSG2 antibody by an anti-DSG2 antibody meso scale discovery (MSD) assay. […] The DSG2 fusion polypeptides were subjected to size exclusion chromatography and different elution fractions were examined. […] As shown in Table 7 and FIG. 1B, FIG. 1C, and FIG. 1D, enriching for fraction C improved the ability of the DSG2 fusion polypeptides to block ARVC patient serum.

[5] = Dynamic light scattering (DLS) of DSG2 fusion polypeptides; type: physicochemical; settings: average polymer distribution index
Description: 6 candidates were compared to the reference sample.

[6] = test system: ARVC serum (anti-DSG2 antibodies in serum obtained from ARVC patients); assay: anti-DSG2 antibody MSD assay, blocking of ARVC patient serum; type: binding, human; parameters: % inhibition: concentration or dose not given beside the values; settings: for effect of enriching for fraction C on ability to block ARVC patient serum (in words): fraction C vs whole preparation, FIG. 1B-1D; for % inhibition: fraction C (table title)
Protocol: as §1
ARVC diagnosis is based on complex tool known as Task Force Criteria, which can lead to varying levels of conviction about ARVC diagnosis. The utility of DSG2 antibodies as an indicator of ARVC disease state and severity was explored. Approximately 50 cc serum was collected from diagnosed ARVC patients. A total of 10 ARVC patients and 5 healthy controls were used for the analysis. ARVC serum samples were separated into more robust diagnosis and less robust diagnosis, based on available data in the patient medical records and anti-DSG2 antibody levels were compared using an anti-DSG2 antibody meso scale discovery (MSD)-based assay.

[7] = sample: Anti-DSG2 antibody (200 ng/mL) control
[8] = sample: Anti-DSG2 antibody (1000 ng/mL) control

Question: What does the source list for DSG2-(IgG1)Fc (DSG2FP#2) (Fc fusion)?
Answer: % inhibition [1]: 81.6%; % inhibition [2]: 54.5%

Question: Which % inhibition [3] does the source give for DSG2-(IgG4)Fc (DSG2FP#6) (Fc fusion) here?
Answer: > 80%

Question: Which results are given for “DSG2-EAAAK-(IgG1)Fc (DSG2FP#4) (Fc fusion)”?
Answer: % inhibition [1]: 85.5%; % inhibition [2]: 61.2%

Question: For “DSG2-GGGGS-(IgG1)Fc (DSG2FP#3) (Fc fusion)”, which % inhibition [1] is on record?
Answer: 85.5%

Question: What about the % inhibition [2] of the same molecule?
Answer: 61.2%

Question: For “DSG2-GGGGS-(IgG4)Fc (DSG2FP#7) (Fc fusion)”, which % inhibition [3] is on record?
Answer: > 80%

Question: Which “ability to bind to and block anti-DSG2 antibody (in words)” value (shortened to “ability to bind”) [4] does the source give for “DSG2FP#5: IgG1 Fc 104-330 (L234A, L235A, P329G; SEQ ID NO: 31); DSG2 extracellular domain (50-609 of SEQ ID NO: 1)” here?
Answer: able to bind to and block anti-DSG2 antibodies

Question: What about the PDI [5] of the same molecule?
Answer: 0.31

Question: Which “ability to bind” value [4] does the source give for “DSG2FP#6: DSG2 extracellular domain (50-609 of SEQ ID NO: 1); IgG4 Fc 99-327 (S228P, L235E, P329G) SEQ ID NO: 32” here?
Answer: able to bind to and block anti-DSG2 antibodies

Question: What about the PDI [5] of the same molecule?
Answer: 0.32

Question: Which results are given for “DSG2FP#7: DSG2 extracellular domain (50-609 of SEQ ID NO: 1); GGGGS peptide linker; IgG4 Fc domain”?
Answer: ability to bind to and block anti-DSG2 antibody (in words) [4]: able to bind to and block anti-DSG2 antibodies; PDI [5]: 0.30

B1: DSG2FP#3: DSG2 extracellular domain (50-609); linker GGGGS; IgG1 Fc 104-330 (L234A, L235A, P329G) SEQ ID NO: 31 (protein)
chain: AWITAPVALREGEDLSKKNPIAKIHSDLAEERGLKITYKYTGKGITEPPFGIFVFNKDTGELNVTSILDREETPFFLLTGYALDARGNNVEKPLELRIKVLDINDNEPVFTQDVFVGSVEELSAAHTLVMKINATDADEPNTLNSKISYRIVSLEPAYPPVFYLNKDTGEIYTTSVTLDREEHSSYTLTVEARDGNGEVTDKPVKQAQVQIRILDVNDNIPVVENKVLEGMVEENQVNVEVTRIKVFDADEIGSDNWLANFTFASGNEGGYFHIETDAQTNEGIVTLIKEVDYEEMKNLDFSVIVANKAAFHKSIRSKYKPTPIPIKVKVKNVKEGIHFKSSVISIYVSESMDRSSKGQIIGNFQAFDEDTGLPAHARYVKLEDRDNWISVDSVTSEIKLAKLPDFESRYVQNGTYTVKIVAISEDYPRKTITGTVLINVEDINDNCPTLIEPVQTICHDAEYVNVTAEDLDGHPNSGPFSFSVIDKPPGMAEKWKIARQESTSVLLQQSEKKLGRSEIQFLISDNQGFSCPEKQVLTLTVCECLHGSGCREAQHDSYVGGGGGGSDKTHTCPPCPAPEAAGGPSVFLFPPKPKDTLMISRTPEVTCVVVDVSHEDPEVKFNWYVDGVEVHNAKTKPREEQYNSTYRVVSVLTVLHQDWLNGKEYKCKVSNKALGAPIEKTISKAKGQPREPQVYTLPPSRDELTKNQVSLTCLVKGFYPSDIAVEWESNGQPENNYKTTPPVLDSDGSFFLYSKLTVDKSRWQQGNVFSCSVMHEALHNHYTQKSLSLSPGK
Question: What does the source list for B1?
Answer: effect of enriching for fraction C on ability to block ARVC patient serum (in words) [6]: more pronounced; % inhibition ([6]; sample: ARVC serum 1): 9.2%; % inhibition ([6]; sample: ARVC serum 2): 27.6%; % inhibition ([6]; sample: ARVC serum 3): 15.5%; % inhibition ([6]; sample: ARVC serum 4): −5.6%; % inhibition ([6]; sample: ARVC serum 5): 20.6%; ability to bind to and block anti-DSG2 antibody (in words) [4]: able to bind to and block anti-DSG2 antibodies; % inhibition [4, 7]: 61.2%; % inhibition [4, 8]: 85.5%; % inhibition ([4]; sample: no antibody control): 0.7%; PDI [5]: 0.30

B2: DSG2FP#2: DSG2 extracellular domain (50-609 of SEQ ID NO: 1); IgG1 Fc 104-330 (L234A, L235A, P329G) SEQ ID NO: 31 (protein)
chain: AWITAPVALREGEDLSKKNPIAKIHSDLAEERGLKITYKYTGKGITEPPFGIFVFNKDTGELNVTSILDREETPFFLLTGYALDARGNNVEKPLELRIKVLDINDNEPVFTQDVFVGSVEELSAAHTLVMKINATDADEPNTLNSKISYRIVSLEPAYPPVFYLNKDTGEIYTTSVTLDREEHSSYTLTVEARDGNGEVTDKPVKQAQVQIRILDVNDNIPVVENKVLEGMVEENQVNVEVTRIKVFDADEIGSDNWLANFTFASGNEGGYFHIETDAQTNEGIVTLIKEVDYEEMKNLDFSVIVANKAAFHKSIRSKYKPTPIPIKVKVKNVKEGIHFKSSVISIYVSESMDRSSKGQIIGNFQAFDEDTGLPAHARYVKLEDRDNWISVDSVTSEIKLAKLPDFESRYVQNGTYTVKIVAISEDYPRKTITGTVLINVEDINDNCPTLIEPVQTICHDAEYVNVTAEDLDGHPNSGPFSFSVIDKPPGMAEKWKIARQESTSVLLQQSEKKLGRSEIQFLISDNQGFSCPEKQVLTLTVCECLHGSGCREAQHDSYVGDKTHTCPPCPAPEAAGGPSVFLFPPKPKDTLMISRTPEVTCVVVDVSHEDPEVKFNWYVDGVEVHNAKTKPREEQYNSTYRVVSVLTVLHQDWLNGKEYKCKVSNKALGAPIEKTISKAKGQPREPQVYTLPPSRDELTKNQVSLTCLVKGFYPSDIAVEWESNGQPENNYKTTPPVLDSDGSFFLYSKLTVDKSRWQQGNVFSCSVMHEALHNHYTQKSLSLSPGK
Question: With B2 as the molecule, how does the “effect of enriching for fraction C on ability to block ARVC patient serum (in words)” value [6] read?
Answer: more pronounced

Question: What about the “% inhibition” value ([6]; sample: ARVC serum 1) of the same molecule?
Answer: 3.0%

Question: And the “% inhibition” value ([6]; sample: ARVC serum 2)?
Answer: 33.5%

Question: What about the “% inhibition” value ([6]; sample: ARVC serum 3) of the same molecule?
Answer: 26.0%

Question: What about the “% inhibition” value ([6]; sample: ARVC serum 4) of the same molecule?
Answer: 51.1%

Question: And the “% inhibition” value ([6]; sample: ARVC serum 5)?
Answer: 41.8%

Question: And the “ability to bind” value [4]?
Answer: able to bind to and block anti-DSG2 antibodies

Question: What about the “% inhibition” value [4, 7] of the same molecule?
Answer: 54.5%

Question: What about the “% inhibition” value [4, 8] of the same molecule?
Answer: 81.6%

Question: What about the “% inhibition” value ([4]; sample: no antibody control) of the same molecule?
Answer: −19.1%

Question: And the PDI [5]?
Answer: 0.32

B3: DSG2FP#4: DSG2 extracellular domain (50-609); linker EAAAK; IgG1 Fc 104-330 (L234A, L235A, P329G) SEQ ID NO: 31 (protein)
chain: AWITAPVALREGEDLSKKNPIAKIHSDLAEERGLKITYKYTGKGITEPPFGIFVFNKDTGELNVTSILDREETPFFLLTGYALDARGNNVEKPLELRIKVLDINDNEPVFTQDVFVGSVEELSAAHTLVMKINATDADEPNTLNSKISYRIVSLEPAYPPVFYLNKDTGEIYTTSVTLDREEHSSYTLTVEARDGNGEVTDKPVKQAQVQIRILDVNDNIPVVENKVLEGMVEENQVNVEVTRIKVFDADEIGSDNWLANFTFASGNEGGYFHIETDAQTNEGIVTLIKEVDYEEMKNLDFSVIVANKAAFHKSIRSKYKPTPIPIKVKVKNVKEGIHFKSSVISIYVSESMDRSSKGQIIGNFQAFDEDTGLPAHARYVKLEDRDNWISVDSVTSEIKLAKLPDFESRYVQNGTYTVKIVAISEDYPRKTITGTVLINVEDINDNCPTLIEPVQTICHDAEYVNVTAEDLDGHPNSGPFSFSVIDKPPGMAEKWKIARQESTSVLLQQSEKKLGRSEIQFLISDNQGFSCPEKQVLTLTVCECLHGSGCREAQHDSYVGEAAAKDKTHTCPPCPAPEAAGGPSVFLFPPKPKDTLMISRTPEVTCVVVDVSHEDPEVKFNWYVDGVEVHNAKTKPREEQYNSTYRVVSVLTVLHQDWLNGKEYKCKVSNKALGAPIEKTISKAKGQPREPQVYTLPPSRDELTKNQVSLTCLVKGFYPSDIAVEWESNGQPENNYKTTPPVLDSDGSFFLYSKLTVDKSRWQQGNVFSCSVMHEALHNHYTQKSLSLSPGK
Question: What does the source list for B3?
Answer: % inhibition ([6]; sample: ARVC serum 1): 6.0%; % inhibition ([6]; sample: ARVC serum 2): 9.2%; % inhibition ([6]; sample: ARVC serum 3): −8.0%; % inhibition ([6]; sample: ARVC serum 4): 0.8%; % inhibition ([6]; sample: ARVC serum 5): 2.0%; ability to bind to and block anti-DSG2 antibody (in words) [4]: able to bind to and block anti-DSG2 antibodies; % inhibition [4, 7]: 61.2%; % inhibition [4, 8]: 85.5%; % inhibition ([4]; sample: no antibody control): 0.7%; PDI [5]: 0.32

Source: patent US20240279304A1, “DSG2 COMPOSITIONS AND METHODS” (Arvada Therapeutics, Inc., priority 2021, published 2024)
